Reference: patent US20210054076A1 (Chugai, published 2021)

T1: human CLDN9 (human, UniProt O95484 1-217)
T1 construct: whole, on cells; also called hCLDN9; BaF3_hCLDN9
T1 sequence (looked up): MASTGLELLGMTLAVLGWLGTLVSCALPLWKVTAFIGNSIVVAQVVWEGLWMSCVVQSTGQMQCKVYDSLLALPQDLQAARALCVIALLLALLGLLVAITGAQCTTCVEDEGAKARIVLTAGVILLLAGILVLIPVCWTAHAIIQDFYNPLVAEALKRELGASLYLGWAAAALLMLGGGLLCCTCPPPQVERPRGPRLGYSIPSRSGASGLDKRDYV

T2: human CLDN3 (human, UniProt O15551 1-220)
T2 construct: whole, on cells; also called hCLDN3; BaF3_hCLDN3
T2 sequence (looked up): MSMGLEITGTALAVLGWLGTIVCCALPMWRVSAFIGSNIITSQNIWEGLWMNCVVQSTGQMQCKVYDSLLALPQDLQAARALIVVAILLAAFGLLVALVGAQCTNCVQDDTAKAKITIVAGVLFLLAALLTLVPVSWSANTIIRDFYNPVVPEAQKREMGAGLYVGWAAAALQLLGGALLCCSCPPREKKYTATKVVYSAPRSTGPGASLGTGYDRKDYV

T3: human CLDN4 (human, UniProt O14493 1-209)
T3 construct: whole, on cells; also called hCLDN4; BaF3_hCLDN4
T3 sequence (looked up): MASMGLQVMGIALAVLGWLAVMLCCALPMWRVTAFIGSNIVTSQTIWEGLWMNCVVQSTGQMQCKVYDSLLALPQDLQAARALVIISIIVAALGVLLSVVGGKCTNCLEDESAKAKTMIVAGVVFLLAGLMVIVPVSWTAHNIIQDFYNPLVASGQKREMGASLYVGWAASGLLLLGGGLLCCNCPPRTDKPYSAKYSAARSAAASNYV

T4: hCLDN6(Q156L) (human, UniProt P56747 1-220)
T4 construct: Stably expressed on Ba/F3 cells; also called human CLDN6 mutant; BaF3_hCLDN6(Q156L)
T4 chain: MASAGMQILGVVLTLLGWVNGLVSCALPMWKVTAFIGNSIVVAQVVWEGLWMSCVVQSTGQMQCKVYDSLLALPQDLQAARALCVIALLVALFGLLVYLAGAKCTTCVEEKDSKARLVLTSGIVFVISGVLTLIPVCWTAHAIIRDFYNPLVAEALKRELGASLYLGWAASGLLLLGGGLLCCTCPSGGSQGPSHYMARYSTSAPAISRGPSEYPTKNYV

T5: human CLDN6 (human, UniProt P56747 1-220)
T5 sequence: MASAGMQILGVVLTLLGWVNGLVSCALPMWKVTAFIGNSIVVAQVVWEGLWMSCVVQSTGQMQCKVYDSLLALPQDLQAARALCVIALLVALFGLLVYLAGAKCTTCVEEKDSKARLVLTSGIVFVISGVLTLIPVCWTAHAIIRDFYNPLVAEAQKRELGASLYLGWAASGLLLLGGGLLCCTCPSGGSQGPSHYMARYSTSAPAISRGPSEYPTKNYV

T6: mouse CLDN3 (mouse, UniProt Q9Z0G9 1-219)
T6 construct: whole, on cells; also called mCLDN3; BaF3_mCLDN3
T6 sequence (looked up): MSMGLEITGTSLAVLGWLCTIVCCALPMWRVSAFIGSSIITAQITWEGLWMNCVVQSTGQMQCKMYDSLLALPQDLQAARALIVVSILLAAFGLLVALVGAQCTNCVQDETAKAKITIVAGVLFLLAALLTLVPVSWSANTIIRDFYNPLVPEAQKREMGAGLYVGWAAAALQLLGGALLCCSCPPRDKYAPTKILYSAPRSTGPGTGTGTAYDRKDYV

T7: mouse CLDN6 (mouse, UniProt Q9Z262 1-219)
T7 construct: whole, on cells; also called mCLDN6; BaF3_mCLDN6
T7 sequence (looked up): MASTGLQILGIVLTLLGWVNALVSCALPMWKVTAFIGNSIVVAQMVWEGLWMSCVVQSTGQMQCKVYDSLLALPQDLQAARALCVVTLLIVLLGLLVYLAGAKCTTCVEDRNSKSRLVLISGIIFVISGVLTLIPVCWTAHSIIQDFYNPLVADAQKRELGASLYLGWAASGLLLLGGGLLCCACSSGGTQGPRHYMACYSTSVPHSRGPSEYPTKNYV

T8: mouse CLDN4 (mouse, UniProt O35054 1-210)
T8 construct: whole, on cells; also called mCLDN4; BaF3_mCLDN4
T8 sequence (looked up): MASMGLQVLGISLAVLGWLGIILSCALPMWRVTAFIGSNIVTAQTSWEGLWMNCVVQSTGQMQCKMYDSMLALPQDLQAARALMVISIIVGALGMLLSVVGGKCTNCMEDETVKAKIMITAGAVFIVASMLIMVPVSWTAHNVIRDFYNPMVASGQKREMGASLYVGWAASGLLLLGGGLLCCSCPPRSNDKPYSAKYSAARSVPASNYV


Columns and labels:
[1] = target: T1, human CLDN9; assay: FACS on Ba/F3 transfectant, antibody 20 micro g/ml, FITC anti-human IgG
Method: (§1) To evaluate the binding activity and specificity of the generated CLDN6-TRABs against CLDN6 and other Claudin family antigens, FACS analysis was conducted as follows. Ba/F3 transfectants stably express a kind of protein selected from human CLDN3 (hCLDN3), human CLDN4 (hCLDN4), human CLDN6 (hCLDN6), human CLDN9 (hCLDN9), mouse CLDN3 (mCLDN3), mouse CLDN4 (mCLDN4) and mouse CLDN6 (mCLDN6), were generated using similar method described in WO2008/087978, and named BaF3_hCLDN3, BaF3_hCLDN4, BaF3_hCLDN6, BaF3_hCLDN9, BaF3 mCLDN3, BaF3 mCLDN4, BaF3 mCLDN6, respectively. Each of the CLDN6-TRABs (CH01/CD3, CH02/CD3, CH03/CD3, CH04/CD3) was incubated with the Ba/F3 transfectants at an antibody concentration of 20 micro g/ml in FACS buffer (0.5% BSA containing autoMACS Rinsing Solution, Miltenyl Biotec). Binding activities of each CLDN6-TRAB to the Claudin family proteins (hCLDN3, hCLDN4, hCLDN6, hCLDN9, mCLDN3, mCLDN4, mCLDN6) were examined by incubation of FITC-conjugated goat anti human IgG (BeckmanCoulter), represented as Geo-mean value. Sample processing was conducted on FACSVerse (BD).
(§2) Claudin family proteins have two extracellular domains. The sequence of the first extracellular domain in human CLDN9 is almost the same compared with the first extracellular domain of human CLDN6. For the second extracellular domain of human CLDN9, there are only two amino acids different from the ones at their corresponding positions in human CLDN6 (FIG. 2). The glutamine at position 156 of human Claudin 6 (position 156 in the sequence shown in SEQ ID NO: 44 or 45) was substituted to leucine to make a human CLDN6 mutant comprising the same amino acid as human Claudin 9 at position 156. This human CLDN6 mutant was named as hCLDN6(Q156L) (SEQ ID NO: 53). Ba/F3 transfectant stably express hCLDN6(Q156L) was generated using similar method described in WO2008/087978. The established Ba/F3 transfectant was named BaF3_hCLDN6(Q156L). Binding activity of the generated CLDN6-TRABs against BaF3_hCLDN6(Q156L) was measured using the above mentioned FACS method and the results are shown in FIG. 1 and Table 3.

[2] = target: T2, human CLDN3; assay: as above
Method: as §1, §2

[3] = target: T3, human CLDN4; assay: as above
Method: as §1, §2

[4] = target: T4, hCLDN6(Q156L); assay: as above
Method: as §1, §2

[5] = target: T5, human CLDN6; assay: as above
Method: as §1, §2

[6] = target: T6, mouse CLDN3; assay: as above
Method: as §1, §2

[7] = target: T7, mouse CLDN6; assay: as above
Method: as §1, §2

[8] = target: T8, mouse CLDN4; assay: as above
Method: as §1, §2

[9] = target: T5, human CLDN6; assay: cell-based or functional assay
[10] = target: T5, human CLDN6; assay: cell-based or functional assay; remark: listed apart in the source

Row | Geo-mean value of FACS [1] | Geo-mean value of FACS [2] | Geo-mean value of FACS [3] | Geo-mean value of FACS [4] | Geo-mean value of FACS [5] | Geo-mean value of FACS [6] | Geo-mean value of FACS [7] | Geo-mean value of FACS [8] | EC50 (read off the curve), Jurkat/NFAT-RE luciferase reporter, target cells ABC-1 [9] [nM] | EC50 (read off the curve), Jurkat/NFAT-RE luciferase reporter, target cells PA-1 [10] [nM] | Molecule
1 | 96 | 78 | 42 | 62 | 29 | 29 | 43 | 31 | – | – | isotype control (antibody)
2 | 84 | 37 | 35 | 69 | 4740 | 27 | 1760 | 22 | ~0.05 | ~0.03 | CH02/CD3 (bispecific antibody, human IgG1, kappa, N297A, Made by Fab arm exchange of the bivalent anti-CLDN6 antibody CH02 with the bivalent anti-CD3 antibody CD3-1; human IgG1 constant region; One anti-CLDN6 arm and one anti-CD3 arm; also called CLDN6-TRAB; CLDN6-targeted T-cell redirecting bispecific antibody) heavy 1: EVQVEQSGLELVKPGASVKISCKTSGYTFTEYTMHWVKQSHGKSLEWIGGINPNNGNTRYNQKFKDKATLTVDKSSRTAYMELHTLTSEDSAVYYCARCGDYDLFFFFAYWGQGTLVTVSAASTKGPSVFPLAPSSKSTSGGTAALGCLVKDYFPEPVTVSWNSGALTSGVHTFPAVLQSSGLYSLSSVVTVPSSSLGTQTYICNVNHKPSNTKVDKKVEPKSCDKTHTCPPCPAPELRGGPKVFLFPPKPKDTLMISRTPEVTCVVVDVSHEDPEVKFNWYVDGVEVHNAKTKPREEQYASTYRVVSVLTVLHQDWLNGKEYKCKVSNKALPAPIEKTISKAKGQPREPQVYTLPPSREEMTKNQVSLTCLVKGFYPSDIAVEWESNGQPENNYKTTPPYLDSDGSFFLYSKLTVDKSRWQQGNVFSCSVMHEALHNHYTQESLSLSP light 1: DIVMTQFQKFMSTSVGDRVSVTCKASQNVGTNVAWYQQKPGQSPEALISSASSRFSGVPDRFTGSGSGTDFTLTITNVQSEDLADYFCQQYNSFPFTFGSGTELEIKRTVAAPSVFIFPPSDEQLKSGTASVVCLLNNFYPREAKVQWKVDNALQSGNSQESVTEQDSKDSTYSLSSTLTLSKADYEKHKVYACEVTHQGLSSPVTKSFNRGEC heavy 2: QVQLVESGGGVVQPGGSLRLSCAASGFTFSNAWMHWVRQAPGKGLEWVAQIKDKSQNYATYVAESVKGRFTISRADSKNSIYLQMNSLKTEDTAVYYCRYVHYAAGYGVDIWGQGTTVTVSSASTKGPSVFPLAPSSKSTSGGTAALGCLVKDYFPEPVTVSWNSGALTSGVHTFPAVLQSSGLYSLSSVVTVPSSSLGTQTYICNVNHKPSNTKVDKKVEPKSCDKTHTCPPCPAPELRGGPKVFLFPPKPKDTLMISRTPEVTCVVVDVSHEDPEVKFNWYVDGVEVHNAKTKPREEQYASTYRVVSVLTVLHQDWLNGKEYKCKVSNKALPAPIEKTISKAKGQPREPQVYTLPPSRKEMTKNQVSLTCLVKGFYPSDIAVEWESNGQPENNYKTTPPYLDSDGSFFLYSKLTVDKSRWQQGNVFSCSVMHEALHNHYTQKSLSLSP light 2: DIVMTQSPLSLPVTPGEPASISCRSSQPLVHSNRNTYLHWYQQKPGQAPRLLIYKVSNRFSGVPDRFSGSGSGTDFTLKISRVEAEDVGVYYCGQGTQVPYTFGQGTKLEIKRTVAAPSVFIFPPSDEQLKSGTASVVCLLNNFYPREAKVQWKVDNALQSGNSQESVTEQDSKDSTYSLSSTLTLSKADYEKHKVYACEVTHQGLSSPVTKSFNRGEC
